Values belong to the molecule of their own block, whether it stands above or below them.
How the values were obtained:
[1] = target: 250-kDa (nonreduced) fragment of MUC2-N after cleavage by rCLCA1, D′–D3 and CysD (human); experiment: non-reducing SDS-PAGE with SYPRO Ruby stain and immunoblot; recombinant MUC2-N with or without in vitro cleavage by rCLCA1 fractions (18 h, 37 C, 20 mM Tris-HCl pH 7.5, 150 mM NaCl, 10 mM CaCl2), separated without DTT; D3 (MUC2-N3) antibody
[2] = target: C-terminal cleavage product of human CLCA1 in sigmoid colon mucus and epithelium (human (endogenous in sigmoid colon)) (UniProt A8K7I4); experiment: non-reducing SDS-PAGE with immunoblot; mucus and epithelial lysate from mouse distal colon or human sigmoid colon, denatured in SDS sample buffer without DTT (non-reduced) against with 100 mM DTT (reduced), blotted with C-terminal CLCA1 antibodies; shows disulfide-linked species only
[3] = target: C-terminal cleavage product of mouse Clca1 in distal colon mucus and epithelium (mouse (endogenous in colon)) (UniProt Q9D7Z6); experiment: as above
[4] = target: C-terminal cleavage product of recombinant human CLCA1 in supernatant of transfected CHO-K1 cells (human) (UniProt A8K7I4); experiment: non-reducing SDS-PAGE with immunoblot; supernatant from hCLCA1-transfected CHO-K1 cells, reducing or nonreducing sample buffer, blotted with C terminus (3-ar) antibody; shows disulfide-linked species only
[5] = target: Human CLCA1 in sigmoid colon mucus and epithelial lysate (N- and C-terminal products) (human (endogenous in sigmoid colon)) (UniProt A8K7I4); experiment: native gel or EMSA; NativePAGE Novex Bis-Tris 4-16% with G-250; mucus and epithelial lysates from human sigmoid colon, WT and Clca1-/- mouse colon and desalted medium with rCLCA1; blotted with N- or C-terminal CLCA1 antibodies
[6] = target: Mouse Clca1 in colonic mucus and epithelial lysate (N- and C-terminal products) (mouse (endogenous in colon)) (UniProt Q9D7Z6); experiment: as above
[7] = target: Recombinant human CLCA1 in spent supernatant of rCLCA1-expressing CHO-K1 cells (N- and C-terminal products) (human) (UniProt A8K7I4); experiment: as above
[8] = target: the molecule itself; experiment: non-reducing SDS-PAGE with immunoblot; supernatant from hCLCA1-transfected CHO-K1 cells, reducing or nonreducing sample buffer, blotted with C terminus (3-ar) antibody; shows disulfide-linked species only

stoichiometry N [1]: 3
Molecule: 250-kDa (nonreduced) fragment of MUC2-N after cleavage by rCLCA1, D′–D3 and CysD (domain or fragment)

stoichiometry N [2]: 2
Molecule: C-terminal cleavage product of human CLCA1 in sigmoid colon mucus and epithelium (from UniProt A8K7I4 22-914) (domain or fragment)

stoichiometry N [3]: 2
Molecule: C-terminal cleavage product of mouse Clca1 in distal colon mucus and epithelium (from UniProt Q9D7Z6 22-913) (domain or fragment)

stoichiometry N [4]: 2
Molecule: C-terminal cleavage product of recombinant human CLCA1 in supernatant of transfected CHO-K1 cells (from UniProt A8K7I4 22-914) (domain or fragment)

stoichiometry N [5]: 8
Molecule: Human CLCA1 in sigmoid colon mucus and epithelial lysate (N- and C-terminal products) (from UniProt A8K7I4 22-914; A8K7I4 22-914) (complex)

stoichiometry N [6]: 8
Molecule: Mouse Clca1 in colonic mucus and epithelial lysate (N- and C-terminal products) (from UniProt Q9D7Z6 22-913; Q9D7Z6 22-913) (complex)

stoichiometry N [7]: 8
Molecule: Recombinant human CLCA1 in spent supernatant of rCLCA1-expressing CHO-K1 cells (N- and C-terminal products) (from UniProt A8K7I4 22-914; A8K7I4 22-914) (complex)

B1: Uncleaved recombinant human CLCA1 secreted from transfected CHO-K1 cells (natural protein, UniProt A8K7I4 22-914, looked up)
chain: NSLIQLNNNGYEGIVVAIDPNVPEDETLIQQIKDMVTQASLYLLEATGKRFYFKNVAILIPETWKTKADYVRPKLETYKNADVLVAESTPPGNDEPYTEQMGNCGEKGERIHLTPDFIAGKKLAEYGPQGRAFVHEWAHLRWGVFDEYNNDEKFYLSNGRIQAVRCSAGITGTNVVKKCQGGSCYTKRCTFNKVTGLYEKGCEFVLQSRQTEKASIMFAQHVDSIVEFCTEQNHNKEAPNKQNQKCNLRSTWEVIRDSEDFKKTTPMTTQPPNPTFSLLQIGQRIVCLVLDKSGSMATGNRLNRLNQAGQLFLLQTVELGSWVGMVTFDSAAHVQNELIQINSGSDRDTLAKRLPAAASGGTSICSGLRSAFTVIRKKYPTDGSEIVLLTDGEDNTISGCFNEVKQSGAIIHTVALGPSAAQELEELSKMTGGLQTYASDQVQNNGLIDAFGALSSGNGAVSQRSIQLESKGLTLQNSQWMNGTVIVDSTVGKDTLFLITWTMQPPQILLWDPSGQKQGGFVVDKNTKMAYLQIPGIAKVGTWKYSLQASSQTLTLTVTSRASNATLPPITVTSKTNKDTSKFPSPLVVYANIRQGASPILRASVTALIESVNGKTVTLELLDNGAGADATKDDGVYSRYFTTYDTNGRYSVKVRALGGVNAARRRVIPQQSGALYIPGWIENDEIQWNPPRPEINKDDVQHKQVCFSRTSSGGSFVASDVPNAPIPDLFPPGQITDLKAEIHGGSLINLTWTAPGDDYDHGTAHKYIIRISTSILDLRDKFNESLQVNTTALIPKEANSEEVFLFKPENITFENGTDLFIAIQAVDKVDLKSEISNIARVSLFIPPQTPPETPSPDETSAPCPNIHINSTIPGIHILKIMWKWIGELQLSIA
modifications: glycosylated
notes: human CLCA1, full-length construct, not cut at the self-cleavage site (120 kDa); also called uncleaved rCLCA1; uncleaved CLCA1; source: CHO-K1, transfected, in supernatant
stoichiometry N [8]: 2
